Data on 6 molecules can be found in patent US20190016800A1 (NANJING LEADS BIOLABS, published 2019).

As usually defined, the Kd is a measure of binding affinity in units of concentration. For orientation: koff means the first-order rate constant of dissociation. For orientation: kon means a measure of how fast the partners come together. What is called IC50 is the concentration that inhibits the measured activity by half. By EC50 is commonly meant the concentration needed to bring the measured effect to its halfway point.

Assay [1] addresses T1, Mouse LAG-3 (Acrobiosystems) (mouse, UniProt Q61790 24-442, limits assumed).
T1 construct: Bought protein; also called mouse LAG-3 recombinant protein
T1 sequence (looked up): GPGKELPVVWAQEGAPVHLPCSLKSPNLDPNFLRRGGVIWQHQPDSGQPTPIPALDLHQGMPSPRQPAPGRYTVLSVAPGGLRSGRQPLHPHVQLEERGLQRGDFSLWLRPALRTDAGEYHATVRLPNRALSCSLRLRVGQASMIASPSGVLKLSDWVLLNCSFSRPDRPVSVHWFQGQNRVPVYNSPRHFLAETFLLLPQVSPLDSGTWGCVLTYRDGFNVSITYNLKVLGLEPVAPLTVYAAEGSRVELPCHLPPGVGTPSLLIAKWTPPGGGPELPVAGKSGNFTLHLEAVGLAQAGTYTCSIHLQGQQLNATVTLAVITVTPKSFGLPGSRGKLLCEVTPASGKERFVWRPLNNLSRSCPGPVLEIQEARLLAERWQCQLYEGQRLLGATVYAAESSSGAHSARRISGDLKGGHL
Kind of assay: ELISA, mouse LAG-3 recombinant protein immobilized. A general note: In an ELISA, binding on a coated surface is turned into a signal by an enzyme label.

The target of assay [2] is T2, human CD4 recombinant protein (Sino Biological) (human, UniProt P01730 26-390, limits assumed).
T2 construct: Bought protein
The experiment in a line: ELISA, human CD4 recombinant protein immobilized.

The target in assay [3] is T3, Human LAG-3 protein (Cat#LA3-5222, Acrobiosystems) (human, UniProt P18627 23-450).
T3 construct: Bought protein; also called recombinant human LAG-3; LAG3 recombinant protein
T3 sequence: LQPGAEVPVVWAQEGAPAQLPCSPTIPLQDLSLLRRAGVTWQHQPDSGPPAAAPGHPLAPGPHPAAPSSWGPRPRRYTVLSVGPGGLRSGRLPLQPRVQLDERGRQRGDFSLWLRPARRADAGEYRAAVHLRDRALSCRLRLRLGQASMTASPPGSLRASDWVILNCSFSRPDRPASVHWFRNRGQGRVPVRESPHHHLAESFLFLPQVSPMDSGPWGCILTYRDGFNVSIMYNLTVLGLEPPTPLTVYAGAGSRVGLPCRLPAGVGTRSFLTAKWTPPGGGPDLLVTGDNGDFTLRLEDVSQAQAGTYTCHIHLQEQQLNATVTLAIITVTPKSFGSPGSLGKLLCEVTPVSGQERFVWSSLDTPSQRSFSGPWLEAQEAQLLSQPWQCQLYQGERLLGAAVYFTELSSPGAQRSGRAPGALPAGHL
Kind of assay: SPR Biacore T200, antibody captured on anti-human IgG (Fc), human LAG-3 injected 6.25-200 nM, 1:1 Langmuir fit. (In SPR one partner is held on a chip, and binding of the other changes the refractive index at the surface.)

The target of assay [4] is T3, Human LAG-3 protein (Cat#LA3-5222, …). Kind of assay: phage ELISA on coated LAG3.
Assay [5] addresses T4, LAG-3 fusion protein comprising human LAG-3 extracellular domain fused to mouse Fc (SinoBiological, … (human; mouse, UniProt P18627 23-450).
T4 construct: Bought fusion protein; not shown: mouse Fc
T4 sequence: T3 sequence
Kind of assay: flow cytometry blocking assay: antibody premixed with hLAG-3-mFc, binding of hLAG-3-mFc to MHC class II on Daudi cells read as MFI. Background: In flow cytometry, cells or beads pass a laser one at a time.

Assay [6] deals with T5, recombinant rhesus monkey LAG-3 protein (Amino acids 1-450 of XM_001108923.3 fused to human IgG1 Fc domain) (rhesus monkey; human, UniProt P18627 23-450).
T5 construct: not shown: human IgG1 Fc domain
T5 chain: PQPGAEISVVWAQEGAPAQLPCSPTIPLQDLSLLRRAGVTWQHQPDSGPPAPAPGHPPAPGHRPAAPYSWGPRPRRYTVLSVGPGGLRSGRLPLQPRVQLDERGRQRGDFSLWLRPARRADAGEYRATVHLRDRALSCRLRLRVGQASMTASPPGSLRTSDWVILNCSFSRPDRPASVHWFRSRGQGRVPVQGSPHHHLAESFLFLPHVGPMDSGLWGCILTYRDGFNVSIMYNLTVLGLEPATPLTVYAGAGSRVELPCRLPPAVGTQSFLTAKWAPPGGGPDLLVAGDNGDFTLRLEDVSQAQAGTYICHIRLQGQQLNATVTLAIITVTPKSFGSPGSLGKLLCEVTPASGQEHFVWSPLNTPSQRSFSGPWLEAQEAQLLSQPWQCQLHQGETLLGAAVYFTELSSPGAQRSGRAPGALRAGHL
Kind of assay: BLI ForteBio Octet RED 96, biotin labeled antibody on streptavidin sensor, antigen 3.125-100 nM, 1:1 fit.

For assay [7], the target named is T3, Human LAG-3 protein (Cat#LA3-5222, …). The assay is described as above.
Assay [8] deals with cynomolgus monkey LAG-3 protein (Cat#LA3-C52A0, Acrobiosystems) (cynomolgus monkey). The description is as above.
In assay [9] the target is T3, Human LAG-3 protein (Cat#LA3-5222, …). The experiment in a line: ELISA, human LAG-3 recombinant protein immobilized, serially diluted antibody, anti-human IgG-HRP, OD450-620.
For assay [10], the target named is T6, Recombinant LAG-3 domain 1-2 (Amino acid 1-262) fused to human IgG1 Fc domain (human, UniProt P18627 23-262).
T6 construct: also called domain 1-2 of human LAG-3; not shown: human IgG1 Fc domain
T6 sequence: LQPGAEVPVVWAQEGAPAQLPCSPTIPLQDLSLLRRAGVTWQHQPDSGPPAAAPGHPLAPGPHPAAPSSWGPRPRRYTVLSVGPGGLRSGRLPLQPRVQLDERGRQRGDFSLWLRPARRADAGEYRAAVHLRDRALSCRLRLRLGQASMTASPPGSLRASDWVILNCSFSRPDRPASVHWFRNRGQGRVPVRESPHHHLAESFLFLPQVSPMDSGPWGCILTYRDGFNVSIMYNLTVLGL
Kind of assay: ELISA, human LAG-3 domain 1-2 Fc fusion immobilized, serially diluted antibody, anti-human F(ab')2-HRP, OD450-620.

For assay [11], the target named is T3, Human LAG-3 protein (Cat#LA3-5222, …). Kind of assay: ELISA blocking assay: human LAG-3 immobilized, antibody mixed with biotin labeled LSECtin, streptavidin-HRP, OD450-620.

B1: anti-LAG-3 antibody 6# (antibody, human IgG4 S228P, lambda, V domains shown)
VH: QVQLVQSGGGVVQPGRSLRLPCAASGFTFSSYGMHWVRQAPGKGLEWVAAISYDGSNKYYADSVKGRFTISRDNSKNTLYLQMNSLRAEDTAVYYCAREGSYYLEGIDYWGQGTLVTVSS
VL: QSVLTQPPSVSEAPRQRVTISCSGSSSNIGDNAVNWYQQLPGKAPTLLIYYDDLLPSGVPDRFSGSKSGTSASLAISGLQSEDEAEYYCAAWDDSLKGYVFGTGTKLTVLG
notes: also called Clone 6#; Clone 6
As to B1, in [1], the binding result is “no binding (tested: about 10 nM)”. The binding result in [2] was “no binding (tested: about 20 nM)”. Also, in assay [3], the Kd is 38.4 nM, the koff was found to be 0.000943 s⁻¹ and the kon amounted to 24600 M⁻¹ s⁻¹.

B2: clone 6# as single chain Fv displayed on phage (scFv)
scFv: QVQLVQSGGGVVQPGRSLRLPCAASGFTFSSYGMHWVRQAPGKGLEWVAAISYDGSNKYYADSVKGRFTISRDNSKNTLYLQMNSLRAEDTAVYYCAREGSYYLEGIDYWGQGTLVTVSSSGGSTITSYNVYYTKLSSSGTQSVLTQPPSVSEAPRQRVTISCSGSSSNIGDNAVNWYQQLPGKAPTLLIYYDDLLPSGVPDRFSGSKSGTSASLAISGLQSEDEAEYYCAAWDDSLKGYVFGTGTKLTVLG
For B2, the binding result in assay [4] is recorded as “binds”.

B3: clone 8# as single chain Fv displayed on phage (scFv)
scFv: QVQLQESGGGVVRPGGSLRLSCAASGFTFDDYGMSWVRQAPGKGLEWVSGINWSGGSTYYADSVKGRSTISRDNSKNTLYLQMNSLRAEDTAVYYCATGGYWGQGTLVTVSSSGGSTITSYNVYYTKLSSSGTSYELTQPPSVSVSPGQTASITCSGDKLGDKYTSWYQQKPGQSPLLVIYQSTKRPSGIPERFSGSNSGDTATLTISGTQPMDEADYYCQAWDSSTAVFGGGTKLTVLG
In the case of B3, the binding result in assay [4] is reported as “binds”.

B4: anti-LAG-3 antibody 2# (antibody, V domains shown)
VH: QVQLQESGGGVVRPGGSLRLSCAASGFTFDDYGMSWVRQAPGKGLEWVSGINWSGGSTYYADSVKGRSTISRDNSKNTLYLQMNSLRAEDTAVYYCATGGYWGQGTLVTVSS
VL: not shown
notes: elsewhere IgG4 is preferred; also called Clone 2#; clone #2
For the molecule B4, the IC50 amounted to 11.5 nM in assay [5] and 6.48 nM in assay [11]. Further, the Kd in assay [6] came to 1.22 nM; in assay [7], 0.13 nM; in assay [8], 1.27 nM; in [3], 0.348 nM. For the same molecule, the koff was 0.000676 s⁻¹ in [6], 3.65e-05 s⁻¹ in assay [7], 0.00058 s⁻¹ in [8] and 0.00062 s⁻¹ in assay [3]. Besides, the kon in assay [6] was 554000 M⁻¹ s⁻¹; in assay [7] it was 280000 M⁻¹ s⁻¹; in [8] it was 457000 M⁻¹ s⁻¹; in assay [3], 1.78e+06 M⁻¹ s⁻¹. The half-maximal effective concentration (EC50) in [9] turned out to be 0.105 nM; in assay [10] it was 0.228 nM. In addition, the binding result in assay [1] is reported as “no binding (tested: about 10 nM)”; in assay [2] it was “no binding (tested: about 20 nM)”.

B5: anti-LAG-3 antibody 13# (antibody, human IgG4 S228P, lambda, V domains shown)
VH: B4 VH
VL: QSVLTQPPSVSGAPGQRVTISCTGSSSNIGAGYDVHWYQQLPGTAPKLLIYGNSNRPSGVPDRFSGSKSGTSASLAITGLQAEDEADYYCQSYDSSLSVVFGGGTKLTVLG
notes: The VH is the same as that of clone 8; also called Clone 13#; Clone 13
With B5, the figures for the EC50 in assay [9] and in assay [10] were 0.509 nM and 1.46 nM, respectively. The binding result in assay [1] is recorded as “no binding (tested: about 10 nM)”; in assay [2], “no binding (tested: about 20 nM)”. The molecule further registered a Kd in assay [3] of 486 nM. This molecule also showed a koff in assay [3] of 0.0448 s⁻¹. In addition, the kon in assay [3] stood at 92200 M⁻¹ s⁻¹.

B6: anti-LAG-3 antibody 8# (antibody, human IgG4 S228P, lambda, V domains shown)
VH: B4 VH
VL: SYELTQPPSVSVSPGQTASITCSGDKLGDKYTSWYQQKPGQSPLLVIYQSTKRPSGIPERFSGSNSGDTATLTISGTQPMDEADYYCQAWDSSTAVFGGGTKLTVLG
notes: also called Clone 8#; Clone 8
Regarding B6, in assay [5], the IC50 is 31.5 nM. Further, the EC50 in [9] stood at 0.637 nM. For the same molecule, the EC50 in assay [10] came out at 1.99 nM. The binding result in [1] is “no binding (tested: about 10 nM)”. In addition, in [2], the binding result is “no binding (tested: about 20 nM)”. In assay [3], this molecule showed a Kd of 2.08 nM, a koff of 0.000298 s⁻¹ and an on-rate constant (kon) of 143000 M⁻¹ s⁻¹.
